Test results published in patent US20200277373A1, “ANTI-TREM2 ANTIBODIES AND METHODS OF USE THEREOF” (Denali Therapeutics Inc., priority 2017, published 2020).

B1: 3D3.A1: anti-TREM2 antibody clone; VH SEQ ID NO:18, VL SEQ ID NO:29 (antibody, V domains shown)
VH: EVQLQQSGPELVKPGASVKISCKTSGYTLSEYTMHWVIQSHGKSLEWIGGVIPNSGGTSYNQKFRDKASLTVDKSSSTAYLELRSLTSEDSAVYYCARGDDSYRRGYALDYWGQGTSVTVSS
VL: DIVMSQSPSSLAVSVGEKVTMSCKSSQSLLYSSNQKSYLAWYQQKPGQSPKLLIYWASTRESGVPDRFRGSGSGTDFTLTISSVKAEDLAVYYCQQYFSYPPTFGGGTKLEIK
B2: RS9.F6: anti-TREM2 antibody clone; VH SEQ ID NO:24, VL SEQ ID NO:35 (antibody, V domains shown)
VH: QVQLQQPGAELVKPGASVKLSCKASGYTFTSYWMHWVKQSPGRGLEWIGRSDPTTGGTNYNEKFKTKATLTVDKPSSTAYMQLSSLTSDDSAVYYCVRTSGTGDYWGQGTSLTVSS
VL: DVVMTQTPLSLPVSLGDQASISCRSSQSLVHNNGNTFLHWYLQKPGQSPKLLIYKVSNRFSGVPDRFSGSGSGTDFTLKISRVEAEDLGVYFCSQTTHVPPTFGGGTKLEIK
B3: 21D11: anti-TREM2 antibody clone; VH SEQ ID NO:14, VL SEQ ID NO:25 (antibody, V domains shown)
VH: QVQLQQSGAELARPGASVKLSCKASGYTFTSYWIQWVKQRPGQGLEWIGTIYPGDGDARYTQKFKGKATLTADKSSSTTYMQLNSLASEDSAVYYCARNGITTAGYYAMDYWGQGTSVTVSS
VL: DIQMTQSPASLSVSVGETVTITCRASENIYSNLAWYQQKQGRSPQLLVYAATNLADGVPSRFSGSGSGTQYSLKINSLQSEDFGYYYCQHFWGTPYTFGGGTKVEIK

Experiments:
human macrophages = assay: Signaling pathway Alpha-LISA (pSYK, pERK1/2, pGSK3-beta, pAKT) in human macrophages; format: cell-based; details: 15 minutes
Method: Anti-TREM2 antibodies were characterized for activation of several signaling pathways, SYK, ERK1/2, AKT and GSK3-beta. Human macrophages differentiated from peripheral monocytes were plated in 96-well plates at a density of 100,000 cell/well. The assay was tested in three conditions (0%, 0.5%, and 10% FBS in the media) for 3 hours. Cells were stimulated with the antibody RS9.F6, 24B4.A1, 8A11.B1, 3D3.A1, 54C2.A1, isotype control IgG2ak, rat anti-TREM2 from R&D, isotype control rat IgG2b, or no treatment (NT) for 15 minutes. The cell lysates were measured for p-Y525/526-SYK, p-T202/Y204-ERK1/2, p-S9-GSK3-beta, and p-S473-AKT using Alpha-LISA kits (Perkin Elmer). […] The antibodies stimulated p-GSK signal moderately (FIG. 6C).

hTREM2 = target: T1, hTREM2 (Homo sapiens, UniProt Q9NZC2); assay: Biacore T200 binding kinetics to hTREM2; details: analyte hTREM2
T1 construct: The ecto domain (residues 19-172) of TREM2 (UniProtKB—Q9NZC2); secretion signal of mouse Ig kappa chain V-III (P01661 aa 1-20) (N); made in house; host or cells: Expi293F
T1 sequence (Q9NZC2 19-172): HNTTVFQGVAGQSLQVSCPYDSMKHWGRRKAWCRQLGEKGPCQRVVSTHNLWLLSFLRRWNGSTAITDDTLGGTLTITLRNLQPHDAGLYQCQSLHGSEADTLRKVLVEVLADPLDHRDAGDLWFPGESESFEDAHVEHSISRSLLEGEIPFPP
Method: The binding of the TREM2/TfR-binding protein RS9.F6/3C35.21.17 to TREM2 and TfR was measured using SPR on a Biacore T200 instrument. To measure TfR binding, anti-human-Fab was immobilized on a CM5 chip, and the TREM2/TfR-binding protein was captured. Full-length human TfR or human TfR apical domain at serial dilution (e.g., concentrations of 1-1000 nM) was flowed over the chip (180 second association time) and then allowed to dissociate. Fitting was performed using a 1:1 binding model. To measure TREM2 binding, anti-human-Fc antibody was immobilized on a CM5 chip, and the TREM2/TfR-binding protein was captured. A range of concentrations of recombinant TREM2-His protein were flowed over the chip, and allowed to associate and dissociate. The resulting sensograms were fitted using a 1:1 Langmuir model to estimate kon and koff (FIG. 10).
The affinities of RS9.F6/3C35.21.17 for human TREM2 and TfR were determined by surface plasmon resonance using a Biacore™ T200. Biacore Series S CM5 sensor chips were immobilized with a mixture of two monoclonal mouse anti-Fab antibodies (Human Fab capture kit from GE Healthcare). Serial 3-fold dilutions of each antigen were injected at a flow rate of 30 μL/min. The binding of the antigens to captured antibody was monitored for 30 to 180 seconds and then their dissociation was monitored for 30-300 seconds in HBS-EP+running buffer (GE, # BR100669). Binding response was corrected by subtracting the RU from a blank flow cell. A 1:1 Languir model of simultaneous fitting of kon and koff was used for kinetics analysis.

soluble TREM2 (sTREM2) = target: T2, soluble TREM2 (sTREM2) (Homo sapiens, UniProt Q9NZC2); assay: Soluble TREM2 (TREM2 shedding) assay in HEK293 TREM2/DAP12 cells; format: cell-based; set-up: key to STREM2: NC = no change; −− = reduced sTREM2; ++ = increased sTREM2; details: change in sTREM2 levels
T2 construct: expressed in transfected cells
T2 sequence (Q9NZC2 19-230): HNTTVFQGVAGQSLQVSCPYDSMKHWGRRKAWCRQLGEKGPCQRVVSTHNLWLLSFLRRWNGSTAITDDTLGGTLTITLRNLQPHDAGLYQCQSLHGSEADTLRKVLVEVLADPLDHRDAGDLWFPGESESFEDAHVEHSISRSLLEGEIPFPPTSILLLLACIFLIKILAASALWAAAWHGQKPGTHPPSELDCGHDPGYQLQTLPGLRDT
T2 sequence (O43914 22-113 partner): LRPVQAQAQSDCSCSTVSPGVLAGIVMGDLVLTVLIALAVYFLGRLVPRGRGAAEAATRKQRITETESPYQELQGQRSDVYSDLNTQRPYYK
Method: HEK293 cells stably expressing human TREM2 and DAP12 were plated onto 96-well plates pre-coated with poly-D-lysine 4-16 hours prior to antibody treatment. Antibody supernatants or control antibodies were diluted into fresh complete media and added onto cells in triplicate. Cells were incubated with antibody containing media for 18 hours prior to removal of the cell supernatant for assay by TREM2 ELISA. Samples and standards were diluted 1:10 into blocking buffer (3% BSA/TBST) in the assay plate. Briefly, MSD small spot streptavidin plates were coated with biotinylated anti-hTREM2 polyclonal antibody (R&D Systems) overnight at 4° C. or 1 hour at room temperature. Plates were then blocked overnight at 4° C., or 1 hour at room temperature, with blocking buffer, 3% BSA/TBST. Plates were washed three times with TBST in a Biotek plate washer (used for all washes) prior to addition of diluent (blocking buffer) and denatured supernatants from cell culture. A TREM2-His protein diluted in 3% BSA/TBST was used as a standard for absolute quantification. Following 1 hour incubation at room temperature, plates were washed with TBST. The primary detection antibody, sulfo-tagged goat anti-human TREM2 (R&D Systems), diluted in 3% BSA/TBST was added and incubated for 1 hour at room temperature. After washing with TBST, MSD plates were developed using 2×MSD read buffer T, followed by detection using an MSD Sector plate reader. MSD values were converted to absolute quantities of sTREM2 by fitting a standard curve using Prism 7.0 software (Graphpad). Modulation of TREM2 shedding was represented as a ratio to cells cultured with no specific TREM2 antibody in the media.

Row | Molecule | p-SYK signal (human macrophages) | pERK1/2 signal (human macrophages) | ka (hTREM2) [M⁻¹ s⁻¹] | kd (hTREM2) [s⁻¹] | STREM2 (soluble TREM2 (sTREM2))
1 | B1 | robust | robust | 480000 | 0.019 | NC
2 | B2 | robust | robust | 150000 | 0.00034 | NC
3 | B3 |  |  |  |  | NC
